For 2 molecules, Kd results are on record in US20200223938A1 (published 2020).

This assay deals with monomeric FcRn (Sinobiological inc., CT009-H08H) (human;, UniProt P55899 24-297; P61769 21-119). The experiment in a line: Biacore SPR; pH 6.0.

Residue numbers refer to the chain shown, from its start.

Chain of monomeric FcRn (Sinobiological inc., CT009-H08H) (P55899 24-297, chain 1 of 2): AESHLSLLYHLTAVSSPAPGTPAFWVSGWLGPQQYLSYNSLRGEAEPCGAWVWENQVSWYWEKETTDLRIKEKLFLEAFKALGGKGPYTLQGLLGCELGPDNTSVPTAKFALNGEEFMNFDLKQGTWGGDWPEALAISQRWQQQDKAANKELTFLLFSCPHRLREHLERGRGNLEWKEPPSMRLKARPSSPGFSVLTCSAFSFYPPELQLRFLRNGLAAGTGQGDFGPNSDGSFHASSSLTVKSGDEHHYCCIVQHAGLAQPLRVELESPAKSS
Chain of monomeric FcRn (Sinobiological inc., CT009-H08H) (P61769 21-119, chain 2 of 2): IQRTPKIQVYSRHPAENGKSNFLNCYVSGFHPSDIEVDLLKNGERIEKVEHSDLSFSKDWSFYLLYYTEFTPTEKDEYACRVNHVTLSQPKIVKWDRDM

B1: EFc88 (protein)
chain: DKTHTCPPCSAPELLGGPSVFLFPPKPKDTLMISRTPEVTCVVVDVSHEDPEVKFNWYVDGVEVHNAKTKPREELYNSTYRVVSVLTVLHQDWLNGKEYMCKVSNKALPAPIEKTISKAKGQPREPQVYTLPPSREELTKNQVSLTCLVKGFYPSDIAVEWESNGQPENNYKTTPPVLDSDGSFILYSKLTVDKSRWQQGNVFSCSVLHEALHNHYTQKSLSLSPGK
As usually defined, the Kd is the free concentration of one partner at which half of the binding sites on the other are occupied at equilibrium, for simple one-to-one binding. Read a low Kd as tighter binding. Consider B1, for which the Kd was 6.99 nM.

B2: trastuzumab Fc variant EFc82 (antibody)
Fc: B1 chain with S10Q, F23Y, K26E, L75Q, M100K, E136D, N141S, N164I, I185F
B2 displayed a Kd of 6.68 nM.
